{"source": "patent US20210369822A1", "about": "(published 2021)", "molecular_target": "hERG (UniProt Q12809 1-1159)", "sequence (Q12809 whole entry)": "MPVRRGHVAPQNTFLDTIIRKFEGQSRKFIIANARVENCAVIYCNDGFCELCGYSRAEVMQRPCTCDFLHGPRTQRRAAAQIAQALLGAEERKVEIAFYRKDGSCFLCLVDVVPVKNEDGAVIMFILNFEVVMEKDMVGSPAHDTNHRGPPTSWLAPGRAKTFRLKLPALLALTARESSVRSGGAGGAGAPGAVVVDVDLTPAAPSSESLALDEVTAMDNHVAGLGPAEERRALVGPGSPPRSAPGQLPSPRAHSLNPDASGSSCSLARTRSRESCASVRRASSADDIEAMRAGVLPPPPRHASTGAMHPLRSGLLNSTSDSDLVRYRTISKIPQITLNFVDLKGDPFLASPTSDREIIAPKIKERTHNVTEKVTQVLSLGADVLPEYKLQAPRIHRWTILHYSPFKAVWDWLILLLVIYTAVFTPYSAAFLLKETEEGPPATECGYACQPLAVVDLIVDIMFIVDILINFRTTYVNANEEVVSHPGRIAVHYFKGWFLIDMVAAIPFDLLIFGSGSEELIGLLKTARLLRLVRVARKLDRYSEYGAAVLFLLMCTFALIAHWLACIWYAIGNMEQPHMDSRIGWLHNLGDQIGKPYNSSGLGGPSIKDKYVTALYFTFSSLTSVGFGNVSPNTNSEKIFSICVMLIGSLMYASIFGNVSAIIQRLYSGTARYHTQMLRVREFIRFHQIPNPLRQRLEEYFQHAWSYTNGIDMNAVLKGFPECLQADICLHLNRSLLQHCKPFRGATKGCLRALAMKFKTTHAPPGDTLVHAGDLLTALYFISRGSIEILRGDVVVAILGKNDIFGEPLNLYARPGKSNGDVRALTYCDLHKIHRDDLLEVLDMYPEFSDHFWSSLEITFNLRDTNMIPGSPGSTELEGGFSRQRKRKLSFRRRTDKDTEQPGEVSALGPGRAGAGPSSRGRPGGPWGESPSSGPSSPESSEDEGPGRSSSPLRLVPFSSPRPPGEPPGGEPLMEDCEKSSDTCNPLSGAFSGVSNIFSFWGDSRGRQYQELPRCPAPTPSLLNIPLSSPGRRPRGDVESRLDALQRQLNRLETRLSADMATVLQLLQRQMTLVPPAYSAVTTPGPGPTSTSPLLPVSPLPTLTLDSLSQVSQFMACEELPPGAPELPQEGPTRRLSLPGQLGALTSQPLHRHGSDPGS", "test": "cell-based or functional assay"}
{"binder": "VKFNKPFVFLMIEQNTK", "note": "[SP16]", "values": [{"measurement": "IC50 value (µM), hERG FastPatch assay", "result": "> 25", "unit": "µM"}]}
